Assay results: US20160090427A1 (SAMSUNG ELECTRONICS, published 2016)

Columns and labels:
[1] = molecular target: T1, human c-Met/Fc fusion protein (R&D Systems) (human, UniProt P08581 25-932); assay: ELISA, human c-Met/Fc fusion protein coated on plate, hybridoma culture, anti-mouse IgG-HRP
T1 construct: Bought reagent; also called c-Met-Fc (#358-MT/CF, R&D Systems); human c-Met/Fc protein; not shown: Fc part of the bought fusion protein
Procedure: Human c-Met/Fc fusion protein was seeded in an amount of 50 μL (2 μg/mL)/well to microtiter plates and allowed to adhere to the surface of each well. The antibody that remained unbound was removed by washing.
The hybridoma cell culture obtained in Reference Example 1.1.2 was added in an amount of 50 μL to each well of the plates and incubated for 1 hour. The cells remaining unreacted were washed out with a sufficient amount of Tris-buffered saline and Tween 20 (TBST). Goat anti-mouse IgG-horseradish peroxidase (HRP) was added to the plates and incubated for 1 hour at room temperature. The plates were washed with a sufficient amount of TBST, followed by reacting the peroxidase with a substrate (OPD). Absorbance at 450 nm was measured on an ELISA reader.

VEGF (R&D systems) = VEGF (R&D systems) (UniProt P15692-4 27-191, limits assumed); assay: SPR (Biacore T100), CM5 chip, VEGF; format unclear in the text
VEGF (R&D systems), sequence (P15692 other isoform, or with tags, fused parts or gaps limits assumed): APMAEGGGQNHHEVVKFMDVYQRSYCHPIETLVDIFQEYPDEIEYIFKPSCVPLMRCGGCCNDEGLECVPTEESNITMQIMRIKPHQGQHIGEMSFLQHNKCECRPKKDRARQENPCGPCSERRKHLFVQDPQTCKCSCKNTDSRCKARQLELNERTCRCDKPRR
Procedure: An examination on whether the 8 anti-c-Met/anti-VEGF bispecific antibodies prepared in Example 2 maintains binding affinity to VEGF was conducted using Biacore T100(GE). VEGF (R&D systems) immobilized on the surface of CM5 chip (#BR-1005-30, GE) by amino coupling according to the manufacturer's instructions. About 90˜120 RU of the anti-c-Met/anti-VEGF bispecific antibody was captured, and […] was injected thereto at various concentrations. Then, a solution containing 1M NaCl and 5 mM NaOH was injected thereto to regenerate the surface. The obtained data were fitted using BlAevaluation software (GE Healthcare, Biacore T100 evaluation software), to measure the binding affinity to VEGF.

[2] = molecular target: T1, human c-Met/Fc fusion protein (R&D …); assay: SPR (Biacore T100), bispecific captured by human Fab binder on CM5 chip, c-Met-Fc injected
Procedure: An examination on whether the anti-c-Met/anti-VEGF bispecific antibody maintains binding affinity to c-Met was conducted using Biacore T100(GE). A human Fab binding agent (GE Healthcare) was immobilized onto a CM5 chip (#BR-1005-30, GE) according to the manufacturer's instructions. About 90˜120 RU of the anti-c-Met/anti-VEGF bispecific antibody was captured, and c-Met-Fc (#358-MT/CF, R&D Systems) was injected thereto at various concentrations. Then, 10 mM Glycine-HCl (pH 2.1) solution was injected thereto to regenerate the surface. The obtained data were fitted using BlAevaluation software (GE Healthcare, Biacore T100 evaluation software), to measure the binding affinity to c-Met.

T1 sequence (P08581 25-932 limits assumed): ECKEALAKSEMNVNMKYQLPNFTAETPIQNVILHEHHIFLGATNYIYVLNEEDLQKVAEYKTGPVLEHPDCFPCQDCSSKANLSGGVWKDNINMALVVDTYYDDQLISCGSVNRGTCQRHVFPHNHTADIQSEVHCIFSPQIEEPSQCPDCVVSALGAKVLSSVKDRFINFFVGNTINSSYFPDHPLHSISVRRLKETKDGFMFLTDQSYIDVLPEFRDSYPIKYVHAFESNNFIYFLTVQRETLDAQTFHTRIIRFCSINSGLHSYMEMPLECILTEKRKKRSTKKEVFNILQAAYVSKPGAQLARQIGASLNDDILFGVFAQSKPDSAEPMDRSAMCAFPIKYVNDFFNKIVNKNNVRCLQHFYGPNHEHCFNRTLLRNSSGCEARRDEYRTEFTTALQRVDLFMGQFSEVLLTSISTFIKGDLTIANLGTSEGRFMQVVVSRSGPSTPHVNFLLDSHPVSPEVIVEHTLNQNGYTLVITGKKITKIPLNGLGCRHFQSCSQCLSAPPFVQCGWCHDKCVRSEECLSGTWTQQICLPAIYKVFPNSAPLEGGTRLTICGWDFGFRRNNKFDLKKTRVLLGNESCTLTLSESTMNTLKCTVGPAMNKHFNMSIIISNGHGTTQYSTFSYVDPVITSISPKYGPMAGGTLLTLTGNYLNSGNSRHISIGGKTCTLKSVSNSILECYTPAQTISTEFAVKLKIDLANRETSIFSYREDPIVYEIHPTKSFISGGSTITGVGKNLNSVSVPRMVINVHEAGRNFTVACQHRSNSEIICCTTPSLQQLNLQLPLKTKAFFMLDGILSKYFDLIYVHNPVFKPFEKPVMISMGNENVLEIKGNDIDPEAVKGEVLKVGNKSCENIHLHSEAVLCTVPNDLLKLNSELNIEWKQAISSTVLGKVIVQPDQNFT

Row | binding result [1] | Kd (VEGF (R&D systems)) [nM] | Kd [2] [nM] | Binder
1 | binds | – | – | AbF46, mouse monoclonal antibody to c-Met (antibody, V domains shown, Tested as hybridoma culture supernatant in the selection ELISA; also called antibody of hybridoma KCLRF-BP-00220) VH: EVKLVESGGGLVQPGGSLRLSCATSGFTFTDYYMSWVRQPPGKALEWLGFIRNKANGYTTEYSASVKGRFTISRDNSQSILYLQMDTLRAEDSATYYCARDNWFAYWGQGTLVTVSA VL: DILMTQSPSSLTVSAGEKVTMSCKSSQSLLASGNQNNYLAWHQQKPGRSPKMLIIWASTRVSGVPDRFIGSGSGTDFTLTINSVQAEDLAVYYCQQSYSAPLTFGAGTKLELK
2 | – | 2.2 | 0.06 | MV-22 anti-c-Met/anti-VEGF bispecific antibody (bispecific antibody, human IgG2, kappa) heavy: EVQLVESGGGLVQPGGSLRLSCAASGFTFTDYYMSWVRQAPGKGLEWLGFIRNKANGYTTEYSASVKGRFTISRDNSKNTLYLQMNSLRAEDTAVYYCARDNWFAYWGQGTLVTVSSASTKGPSVFPLAPCSRSTSESTAALGCLVKDYFPEPVTVSWNSGALTSGVHTFPAVLQSSGLYSLSSVVTVPSSNFGTQTYTCNVDHKPSNTKVDKTVERKCCVECPPCPAPPVAGPSVFLFPPKPKDTLMISRTPEVTCVVVDVSHEDPEVQFNWYVDGVEVHNAKTKPREEQFNSTFRVVSVLTVVHQDWLNGKEYKCKVSNKGLPAPIEKTISKTKGQPREPQVYTLPPSREEMTKNQVSLTCLVKGFYPSDIAVEWESNGQPENNYKTTPPMLDSDGSFFLYSKLTVDKSRWQQGNVFSCSVMHEALHNHYTQKSLSLSPGKGGGGSGGGGSEVQLLESGGGLVQTGGSLRLSCAASGFTFSDYAMSWVRQAPGKGLEWVSWIYPGDSSIYYADSVKGRFTISRDNSKNTLYLQMNSLRAEDTAVYYCARLLSIDQAQLHYYYDAMDVWGQGTLVTVSSGGGGSGGGGSGGGGSQSVLTQPPSPSGTPGQRVTISCTGSSSNIGNYYVYWYQQLPGTAPKLLIYANSHRPSGVPDRFSGSKSGTSASLAISGLRSEDEADYYCGSWDDSLSAYVFGGGTKLTVLG light: DIQMTQSPSSLSASVGDRVTITCKSSQSLLASGNQNNYLAWYQQKPGKAPKMLIIWASTRVSGVPSRFSGSGSGTDFTLTISSLQPEDFATYYCQQSYSRPYTFGQGTKVEIKRTVAAPSVFIFPPSDEQLKSGTASVVCLLNNFYPREAKVQWKVDNALQSGNSQESVTEQDSKDSTYSLSSTLTLSKADYEKHKVYACEVTHQGLSSPVTKSFNRGEC
